Data: publication PMC10816697

Legend:
[1] = biological target: Skeletal muscle actin (rabbit) (UniProt P68135)
[2] = biological target: Arp2/3 complex purified from sheep brain (sheep)
[3] = biological target: Arp2/3 complex purified from sheep brain (sheep); assay: TIRF microscopy of single actin filaments in microfluidics; branch dissociation rate against GMF concentration (up to 1500 nM), 0.3 μM G-actin, branches aged 30 min (ADP-Arp2/3 complex), average 1 pN pulling force; Michaelis-Menten fit, rapid equilibrium between GMF and the branch junction assumed; apparent dissociation constant; 25°C, pH 7.0, 50 mM KCl

branch renucleation ratio of branches made with budding yeast Arp2/3 complex on mammalian actin [1] [%] | branch renucleation ratio against GMF concentration (0.3 and 0.6 μM actin): GMF concentration of the half-maximum effect; with 25 nM GMF and 0.6 μM actin the ratio was reduced more than threefold [2] [nM] | Kd [3] [nM] | Molecule
< 10 | – | – | Arp2/3 complex from Saccharomyces cerevisiae (from UniProt P32381 1-391; P47117 1-449)
– | < 25 | 260 | drosophila GMF (glia maturation factor) (natural protein) MSDNQICDISNEVLEELKKFRFSKSKNNAALILKVDREKQTVVLDEFIDDISVDELQDTLPGHQPRYVIYTYKMVHDDQRISYPMCFIFYTPRDSQIELQMMYACTKSALQREVDLTRVYEIRELDELTEEWLKAKLK
